Results reported in article doi:10.1101/2022.11.09.515798.

Experiments:
[1] = biological target: Hyphochytrium catenoides kalium channelrhodopsin 1 (HcKCR1) (Hyphochytrium catenoides); assay: cryo-EM structure
[2] = biological target: Hyphochytrium catenoides kalium channelrhodopsin 2 (HcKCR2) (Hyphochytrium catenoides); assay: cryo-EM structure

Substance | stoichiometry N [1] | stoichiometry N [2]
Hyphochytrium catenoides kalium channelrhodopsin 1 (HcKCR1) (natural protein) | 3 | 
Hyphochytrium catenoides kalium channelrhodopsin 2 (HcKCR2) (natural protein) |  | 3
